# CN109627331A
# Where “and” joins values, the source holds several entries; their conditions need not be identical. Identical values can stand only once.
# B1: 鼠源CPV基因工程抗体 (recombinant mouse anti-canine parvovirus antibody expressed in HEK-293 cells) (antibody, V domains shown)
# VH: QVQLKQSGPGLVQPSQSLSITCTVSGFSLTSYGVHWVRHSPGKGLEWLGVIWSGGSTDYNAAFISRLSITKDNSKTQVFFKMNSLQANDTAIYYCARNSFYGSTPGSYAMDYWGQGTSVTVSS
# VL: QIVLTQSPASLSMAIGEKVTIRCIASTDIDDDMNWYQQKPGKPPNLLISEGNTLRPGVPSRFSSSGYGTDFVFTIQNMLSEDVADYYCLQSDNLPLTFGAGTKLELK
# B2: CPV单克隆抗体 (mouse anti-canine parvovirus monoclonal antibody from hybridoma supernatant) (antibody, V domains shown)
# VH: QVQLKQSGPGLVQPSQSLSITCTVSGFSLTSYGVHWVRHSPGKGLEWLGVIWSGGSTDYNAAFISRLSITKDNSKTQVFFKMNSLQANDTAIYYCARNSFYGSTPGSYAMDYWGQGTSVTVSS
# VL: QIVLTQSPASLSMAIGEKVTIRCIASTDIDDDMNWYQQKPGKPPNLLISEGNTLRPGVPSRFSSSGYGTDFVFTIQNMLSEDVADYYCLQSDNLPLTFGAGTKLELK
# How the values were obtained:
# [1] = target: 犬细小病毒 (canine parvovirus, whole virus) (犬细小病毒 (canine parvovirus)); experiment: cell-based or functional assay
# [2] = target: 犬细小病毒VLPs (canine parvovirus virus-like particles) (犬细小病毒 (canine parvovirus)); experiment: indirect ELISA, VLPs coated at 1μg/ml, hybridoma supernatant
# [3] = target: 犬细小病毒VLPs (canine parvovirus virus-like particles) (犬细小病毒 (canine parvovirus)); experiment: non-competitive indirect ELISA, CPV-VLPs coated at 1, 0.5, 0.25, 0.125 μg/ml; mean of 6 Ka values
binder,measurement,setting,value
B1,中和效价,[1],4 titre (1:x) and 8 titre (1:x)
same,血凝抑制效价,[1],8 titre (1:x)
B2,OD450,[2],1.07 OD450
same,Ka,[3],1.02e+11 M⁻¹
